The values that follow come from PMC2779547.

This assay deals with KcsA R64C-SL (potassium ion channel KcsA, R64C mutant, spin-labelled with MTSL) (UniProt P0A334). Nature of the assay: PELDOR.

What is called stoichiometry N is the number of molecules, sites or subunits per partner or assembly. As to “KcsA R64C-SL (potassium ion channel KcsA, R64C mutant, spin-labelled with MTSL) (from UniProt P0A334 1-160) (natural protein)”, the stoichiometry N was found to be 4.
